Assay results reported in patent publication US20180087116, “METHODS AND BIOSENSORS FOR TUMOR DETECTION” (published 2018).

How the values were obtained:
[1] = target: Human serum albumin (HSA) (Homo sapiens, UniProt P02768 P02768:25-609); assay: selectivity control, 20 nM HSA in PBS; methylene blue release fluorescence; values only in figure; conditions: label: methylene blue (non-covalently adsorbed)
Protocol: (§1) In this example, the fabricated MB/aptamer/nanomotors of EXAMPLE 1 were guided by a magnetic field into solutions (human serum samples) containing various concentration of VEGF165 to react with the fabricated MB/aptamer/nanomotor for about 40 minutes. MB can specifically bind with guanine bases in ss-DNA and the used aptamer herein as a type of ss-DNA riches of guanine bases. The fabricated MB/aptamer/nanomotors were stored at about 4° C. in the refrigerator when they were not in use. Then, the MB/aptamer/nanomotors biosensor was guided to solutions containing the various concentration of VEGF165 tumor marker. Upon exposing MB/aptamer/nanomotor with VEGF165, the adsorbed MB to aptamers released to the solution and let to increase the fluorescence signal of MB. The proposed nanomotor may be used for ‘on-the-fly’ interaction of biological targets such as VEGF165 by functionalizing the gold surface of the nanomotor with various bio-receptors.
In addition, to evaluate the selectivity of the proposed biosensor, some of bio-molecules such as human serum albumin (HSA), bovine serum albumin (BSA), glucose (G), urea (U), dopamine (D) and human immunoglobulin G (HIgG) were used as the potential interferences to evaluate the specificity and the results were shown in FIG. 7.

VEGF165 = VEGF165 (UniProt P15692-4 P15692-4:27-191); assay: methylene blue release from aptamer/nanomotor, fluorescence increase; linear response 2.5-30 nM VEGF165; human serum samples or PBS, 40 min; conditions: chain copies: 2; label: methylene blue (non-covalently adsorbed)
Protocol: as §1
In FIG. 6B, relative fluorescence changes are calculated by F/F0, where F0 (7.8) and F are the fluorescence intensity without and with VEGF165, respectively, and excitation wavelength was 625 nm.

Sequence of VEGF165 (P15692 other isoform, or with tags, fused parts or gaps): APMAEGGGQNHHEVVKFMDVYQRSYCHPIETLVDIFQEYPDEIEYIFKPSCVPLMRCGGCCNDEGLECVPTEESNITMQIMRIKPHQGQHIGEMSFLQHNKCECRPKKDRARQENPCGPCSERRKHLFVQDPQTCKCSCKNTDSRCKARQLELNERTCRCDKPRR
Sequence of Human serum albumin (HSA) (P02768 25-609, one chain of several): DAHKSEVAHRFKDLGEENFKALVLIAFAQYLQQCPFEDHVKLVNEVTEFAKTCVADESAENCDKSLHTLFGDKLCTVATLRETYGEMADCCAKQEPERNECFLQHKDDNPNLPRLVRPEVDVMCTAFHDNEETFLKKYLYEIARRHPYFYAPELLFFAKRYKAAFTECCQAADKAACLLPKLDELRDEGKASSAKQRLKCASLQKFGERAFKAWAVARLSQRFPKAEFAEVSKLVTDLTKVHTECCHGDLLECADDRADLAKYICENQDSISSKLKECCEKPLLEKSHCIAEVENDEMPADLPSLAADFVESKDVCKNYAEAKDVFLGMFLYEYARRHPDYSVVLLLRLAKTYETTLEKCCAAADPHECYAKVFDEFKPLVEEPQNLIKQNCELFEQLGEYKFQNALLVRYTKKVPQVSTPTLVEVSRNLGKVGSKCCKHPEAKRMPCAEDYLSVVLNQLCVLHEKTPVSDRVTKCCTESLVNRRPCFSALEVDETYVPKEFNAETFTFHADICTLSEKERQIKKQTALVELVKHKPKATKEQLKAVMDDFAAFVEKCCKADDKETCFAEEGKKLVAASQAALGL

Binder: TTTCCCGTCTTCCAGACAAGAGTGCAGGG (ssDNA, 5'-SH (thiol), immobilised on Au segment of nanomotor) [anti-VEGF DNA aptamer]
- binding result [1]: no binding
- binding result (VEGF165): binds
